In assay [1] the target is T1, human Jagged-1 DSL-EGF3 fragment (J-1_(DSL-EGF3)), His-tagged, wild type (human, UniProt P78504 187-335). Put plainly: pull-down.
Assay [2] has as its target T1, human Jagged-1 DSL-EGF3 fragment …. Put plainly: SPR. In general terms: In SPR one partner is held on a chip, and binding of the other changes the refractive index at the surface.

T1 sequence (P78504 187-335): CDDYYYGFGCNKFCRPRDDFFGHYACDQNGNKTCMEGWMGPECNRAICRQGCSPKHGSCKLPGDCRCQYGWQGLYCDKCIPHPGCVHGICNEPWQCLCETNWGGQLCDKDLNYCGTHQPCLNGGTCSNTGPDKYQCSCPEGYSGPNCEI

B1: human Notch-1 EGF domains 11-13 (N-1_(11-13)) with C-terminal BirA-tag, biotinylated (domain or fragment)
chain: QDVDECSLGANPCEHAGKCINTLGSFECQCLQGYTGPRCEIDVNECVSNPCQNDATCLDQIGEFQCICMPGYEGVHCEVNTDECASSPCLHNGRCLDKINEFQCECPTGFTGHLCQ
modifications: biotin on the C-terminal tag
On to B1, for which the binding result in assay [1] was “binds”.

B2: human Notch-1 EGF domains 11-13 (N-1_(11-13)) without the BirA-tag (domain or fragment)
chain: B1 chain
B2: the binding result in assay [2] was “binds”.

Values taken from PMC2669539 (Nature structural & molecular biology, 2008).
